Measurements: US20220378931A1 (Eli Lilly, published 2022)
Where a chain is given by its changes, count along the chain named.

B1: INS Analog 2 (other)
chain: FVDQHLCGSHLVEALYLVCGERGFFYTPKTGGGGGGGIVEQCCTSICSLYQLENYCGPGPAPGPAPGPAPGPAPGPAPGPAPGPAPGPAEVQLLESGGGLVQPGGSLRLSCAASGRTVSSTAVAWFRQAPGKEREFVAGIGGSVDITYYADSVKGRFTISRDNSKNTLYLQMNSLRPEDTAVYYCAVRPGRPLITSRDANLYDYWGQGTLVTVSS
notes: single-chain insulin B-L2-A-L1-VHH fusion; also called Ex. 2
B2: INS Analog 3 (other)
chain: B1 chain with D3N, S9A
notes: single-chain insulin B-L2-A-L1-VHH fusion; also called Ex. 3
B3: INS Analog 4 (other)
chain: B1 chain with D3N, Y16E
notes: single-chain insulin B-L2-A-L1-VHH fusion; also called Ex. 4
B4: INS Analog 5 (other)
chain: B1 chain with D3N, Y16H
notes: single-chain insulin B-L2-A-L1-VHH fusion; also called Ex. 5
B5: INS Analog 6 (other)
chain: B1 chain with D3N, F25H
notes: single-chain insulin B-L2-A-L1-VHH fusion; also called Ex. 6
B6: INS Analog 19 (other)
chain: FVSQHLCGSHLVEALYLVCGERGFFYTPKTGGGGGGGIVEQCCTSICSLYQLENYCGGGGGQGGGGQGGGGQGGGGQGGGGQEVQLLESGGGLVQPGGSLRLSCAASGRYIDETAVAWFRQAPGKEREFVAGIGGGVDITYYADSVKGRFTISRDNSKNTLYLQMNSLRPEDTAVYYCAARPGRPLITSKVADLYPYWGQGTLVTVSSPP
notes: single-chain insulin B-L2-A-L1-VHH fusion; also called Ex. 19
B7: INS Analog 21 (other)
chain: B6 chain with Y16H, F25H, T44H
notes: single-chain insulin B-L2-A-L1-VHH fusion; also called Ex. 21
B8: INS Analog 17 (other)
chain: FVSQHLCGSHLVEALRLVCGERGFFYTPKTGGGGGGGIVEQCCHSICSLYQLENYCGPGPAPGPAPGPAPGPAPGPAPGPAPGPAPGPAEVQLLESGGGLVQPGGSLRLSCAASGRYIDETAVAWFRQAPGKEREFVAGIGGGVDITYYADSVKGRFTISRDNSKNTLYLQMNSLRPEDTAVYYCAARPGRPLITSKVADLYPYWGQGTLVTVSSPP
notes: single-chain insulin B-L2-A-L1-VHH fusion; also called Ex. 17
B9: INS Analog 14 (other)
chain: B8 chain with H44T
notes: single-chain insulin B-L2-A-L1-VHH fusion; also called Ex. 14
B10: INS Analog 10 (other)
chain: B8 chain with R16H, H44T
notes: single-chain insulin B-L2-A-L1-VHH fusion; also called Ex. 10
B11: INS Analog 8 (other)
chain: B8 chain with R16Y, F25H, H44T
notes: single-chain insulin B-L2-A-L1-VHH fusion; also called Ex. 8
B12: INS Analog 15 (other)
chain: B8 chain with R16F, H44T
notes: single-chain insulin B-L2-A-L1-VHH fusion; also called Ex. 15
B13: INS Analog 9 (other)
chain: B8 chain with R16Y, F25H
notes: single-chain insulin B-L2-A-L1-VHH fusion; also called Ex. 9
B14: INS Analog 22 (other)
chain: B8 chain with R16H, F25H, A61Q, A65Q, A69Q, A73Q, A77Q, A81Q, A85Q, A89Q
notes: single-chain insulin B-L2-A-L1-VHH fusion; also called Ex. 22
B15: INS Analog 11 (other)
chain: B8 chain with R16H, Y50E
notes: single-chain insulin B-L2-A-L1-VHH fusion; also called Ex. 11
B16: INS Analog 16 (other)
chain: B8 chain with R16W, H44T
notes: single-chain insulin B-L2-A-L1-VHH fusion; also called Ex. 16
B17: INS Analog 18 (other)
chain: B8 chain with F25H
notes: single-chain insulin B-L2-A-L1-VHH fusion; L1 is (PGPA)8; also called Ex. 18
B18: INS Analog 7 (other)
chain: B8 chain with R16Y, H44T
notes: single-chain insulin B-L2-A-L1-VHH fusion; also called Ex. 7
B19: INS Analog 12 (other)
chain: B8 chain with R16H, F25H
notes: single-chain insulin B-L2-A-L1-VHH fusion; also called Ex. 12
B20: INS Analog 20 (other)
chain: B8 chain with R16Y, H44T, A61Q, A65Q, A69Q, A73Q, A77Q, A81Q, A85Q, A89Q
notes: single-chain insulin B-L2-A-L1-VHH fusion; also called Ex. 20
B21: INS Analog 13 (other)
chain: B8 chain with R16H, F25H, Y50E
notes: single-chain insulin B-L2-A-L1-VHH fusion; also called Ex. 13

Assays:
[1] = biological target: T1, human insulin receptor isoform B with C-terminal C9 tag (human, UniProt P06213 28-1382); assay: 125I-insulin competition SPA, hIR-B membranes, 0.1% HSA
T1 construct: membranes of stably transfected HEK293 cells; also called hIR-B; human IR-B
Protocol: (§1) The assays are performed with a SPA method using polyvinyltoluene (PVT) wheat germ agglutinin-coupled SPA beads (Perkin Elmer). Assay buffer contains 50 mM Tris-HCl, pH 7.5, 150 mM NaCl and either A) 0.1% w/v fatty-acid free BSA; B) 0.1% w/v fatty-acid free human serum albumin (HSA); C) 0.1% w/v rat serum albumin (RSA); or D) 0.001% Nonidet P-40 Substitute (NP-40, Roche Diagnostics). Ten-point concentration response curves using three-fold serial dilutions of test samples or controls are prepared in Assay Buffer using a Freedom/Evo robot (Tecan).
(§2) Percent specific inhibition (y-axis) is plotted versus the log concentration of compound (x-axis). […] Reported Ki values are shown as the geometric mean with the standard error (Delta Method Standard Error) and the number of independent replicate determinations used to calculate the geometric mean indicated by n.

[2] = biological target: T1, human insulin receptor isoform B with …; assay: 125I-insulin competition SPA, hIR-B membranes, 0.1% BSA
Protocol: as §1, §2

[3] = biological target: T1, human insulin receptor isoform B with …; assay: 125I-insulin competition SPA, hIR-B membranes, 0.001% NP-40
Protocol: as §1, §2

[4] = biological target: T2, human insulin receptor isoform A with C-terminal C9 tag (human, UniProt P06213 28-1382); assay: 125I-insulin competition SPA, hIR-A membranes, 0.001% NP-40
T2 construct: membranes of stably transfected HEK293 cells; also called hIR-A; human IR-A
Protocol: as §1, §2

[5] = biological target: T2, human insulin receptor isoform A with …; assay: 125I-insulin competition SPA, hIR-A membranes, 0.1% HSA
Protocol: as §1, §2

[6] = biological target: T2, human insulin receptor isoform A with …; assay: 125I-insulin competition SPA, hIR-A membranes, 0.1% BSA
Protocol: as §1, §2

Row | Ki [1] | Ki [2] | Ki [3] | Ki [4] | Ki [5] | Ki [6] | Binder
1 | 29.7 nM | 56 nM | 39.2 nM | 45.1 nM | 31.9 nM | 31.4 nM | B1
2 | – | – | – | – | – | 45.2 nM | B2
3 | – | – | – | – | – | 591 nM | B3
4 | – | – | – | – | – | 57 nM | B4
5 | – | – | – | – | – | 65.5 nM | B5
6 | – | – | – | 18.5 nM | – | 41.8 nM | B6
7 | – | – | – | 8.3 nM | – | 28 nM | B7
8 | 102 nM | 110 nM | 44.3 nM | 31.3 nM | 31.3 nM | 81.8 nM | B8
9 | 447 nM | 378 nM | 234 nM | 163 nM | 124 nM | 282 nM | B9
10 | – | – | – | 20.1 nM | – | 146 nM | B10
11 | – | – | – | 47.3 nM | – | 139 nM | B11
12 | – | – | – | 13.1 nM | – | 39.2 nM | B12
13 | – | – | – | 6.67 nM | – | 11.7 nM | B13
14 | – | – | – | 17.1 nM | – | 59.7 nM | B14
15 | 95.4 nM | 164 nM | 81.1 nM | 20.5 nM | 31.8 nM | 36 nM | B15
16 | – | – | – | 43.1 nM | – | 46 nM | B16
17 | 239 nM | 299 nM | 134 nM | 89.5 nM | 518 nM | 204 nM | B17
18 | 47.1 nM | 120 nM | 45.4 nM | 14.3 nM | 36.3 nM | 36.1 nM | B18
19 | 62.1 nM | 113 nM | 42.8 nM | 25 nM | 42.3 nM | 37.9 nM | B19
20 | – | – | – | 18.5 nM | – | 51.3 nM | B20
21 | 89 nM | 131 nM | 39.2 nM | 23.1 nM | 34.6 nM | 60.3 nM | B21
